Assay results taken from the supplement of paper PMC6755084.

B1: F1*; the commonest letter at each place (parent)
chain: GAGACCGCAACTGAAAAGTTGTTATCACTTGTCGTAAGACACTTTGGATGGGTTGAAGTTCTGCACGTAGAAGCAAAAGGC

Variants of: B1
Assay: fraction ligated after 30 min (ligated reads / total reads); higher = more ligase activity
Settings: with F1*sub RNA substrate (template-directed ligation), 42 °C
Experimental: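 Chip-synthesised pool of F1* ligase ribozyme variants (all single and double substitutions, single, double and triple deletions in the catalytic core and GAA bulge, plus designed variants) was transcribed with T7 and reacted as a pool with excess substrate F1*sub for 30 min at 42 C in 50 mM EPPS pH 8.5, 25 mM MgCl2. Ligated and unligated bands were separated by PAGE, barcoded by RT and deep sequenced; fraction ligated = ligated reads / total reads per variant, relative activity = FL / FL of wild type (0.826). Sequences are the DNA template of the ribozyme.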

Variant | fraction ligated
T45G G46A | 0.032
G34A A41C | 0.76
A27T G34A | 0.806
T30A G55T | 0.818
T30A G55A | 0.816
T23C A36T | 0.823
C26G G46A | 0.785
C42G A57G | 0.807
G38T A56G | 0.806
C26T T35C | 0.792
G34A G47C | 0.239
C28T G46A | 0.802
T45A A48C | 0.23
A37C T44A | 0.84
T45A G55A | 0.274
T45A G55C | 0.067
T45A G55T | 0.144
T25G T49A | 0.723
C26G G47A | 0.8
T29A A41G | 0.816
A24T A41C | 0.184
A37T T44C | 0.847
C33T C42G | 0.857
T44C G55C | 0.754

Variant | fraction ligated
T29G G47C | 0.696
A27T A36C | 0.868
T35C C42T | 0.856
T23C A37T | 0.796
G31A G38T | 0.798
A24C T32A | 0.0611
G38A A56G | 0.783
T25A T49C | 0.612
T25A T49G | 0.772
C26T A27C | 0.811
C40T G46C | 0.79
C28A T30G | 0.808
A37G | 0.857
G34T T45G | 0.385
A27C G34C | 0.808
A27T G47A | 0.801
A27T G47T | 0.0847
T30C A57G | 0.818
C40G A56G | 0.766
G31C G38C | 0.778
T23A C33T | 0.848
G50C | 0.424
T23G T43C | 0.747
T25G A37G | 0.806

Variant | fraction ligated
T35G A48T | 0.789
C40A A48G | 0.739
A24G A56C | 0.0669
A24G G50C | 0.257
C33G G38C | 0.829
G34C A39G | 0.807
T25G C26T | 0.191
G47T G50A | 0.0507
G34C T43C | 0.78
T35C A36G | 0.847
T25G C28G | 0.541
A37G A57C | 0.82
A37G A57T | 0.823
T23G A41G | 0.746
C28T A48G | 0.788
A24G C33A | 0.746
T32C A39C | 0.772
T32C A39G | 0.852
T29G C40T | 0.809
T49G G50C | 0.0713
T25C T30C | 0.751
C26T C40T | 0.833
T32A A39C | 0.837
A39G G50T | 0.789

Variant | fraction ligated
A39G G50C | 0.507
A39G G46T | 0.783
T35G A36T | 0.851
T25C T45C | 0.0655
T25C G34C | 0.795
T23A A36C | 0.826
C40G T44A | 0.841
T30A G46T | 0.805
T32G G46T | 0.647
A24C C28T | 0.786
T29C T44G | 0.848
C42G T44G | 0.841
C33A G47C | 0.109
C33T G47T | 0.32
G31T A39G | 0.754
T45G A48G | 0.0747
G38A G46C | 0.792
A24C A27C | 0.557
A48G T49A | 0.678
C42G A56T | 0.797
G34A G55A | 0.84
G34A G55C | 0.801
T23G G55A | 0.832
T23C T32C | 0.788

Variant | fraction ligated
T43C T44C | 0.781
A39C | 0.832
T32C A36T | 0.803
C26G C33G | 0.754
A39C G55C | 0.695
C40T A56G | 0.801
T29G A39G | 0.819
C28A G50A | 0.154
G50A A56G | 0.0277
T30C T49G | 0.485
T30C T49C | 0.0166
T32C C33A | 0.863
A37G T49C | 0.744
C42T G50C | 0.497
A27G C28T | 0.813
A27T A37G | 0.846
C33G G55C | 0.643
C28G C42G | 0.851
A24T C42T | 0.792
T30C G31T | 0.823
A39T A57C | 0.792
G31T C40A | 0.827
G31T C40G | 0.83
A24T C26T | 0.124

Variant | fraction ligated
T30C C40G | 0.828
A24G C42A | 0.796
C28A G46A | 0.829
T29C T43G | 0.815
T29A G31C | 0.842
T44A T45A | 0.762
C40T G47T | 0.197
C28T T44G | 0.813
C28T T44A | 0.816
T32A T49G | 0.618
A36G A56T | 0.873
T30G A57G | 0.787
C26A C42T | 0.793
G31A | 0.812
C42A T43G | 0.805
G46A T49G | 0.627
T23A C40G | 0.838
C40T T45C | 0.77
A41G G46C | 0.768
C33A A56C | 0.742
G31C G46T | 0.784
T29C T35A | 0.843
T29A C42T | 0.826
G38C T45C | 0.0602

Variant | fraction ligated
T30A G34C | 0.781
G34C A57T | 0.769
A24T A57C | 0.386
G55A A56G | 0.821
G46A A56C | 0.483
A24C G50T | 0.646
C42G G46C | 0.816
A36T G50T | 0.775
T44A A56T | 0.801
C26T C28G | 0.768
C26T C28T | 0.733
C26T C28A | 0.795
C33A A39C | 0.792
G34T T44A | 0.792
G34T T44C | 0.811
T35C G46C | 0.792
G47T G55C | 0.0359
T30C G34C | 0.746
A37C T43C | 0.817
C28A C42G | 0.81
A27G T44C | 0.81
T32G A41T | 0.826
A24G G34A | 0.763
T30G G47A | 0.654

Variant | fraction ligated
A41T G55A | 0.809
T25G G50C | 0.142
C26T A39C | 0.789
A24T C40A | 0.34
C26A A41T | 0.768
T29C T45A | 0.554
C26G G55A | 0.169
C33T G55A | 0.859
A39T C42T | 0.829
C26T C42G | 0.795
T32C C42T | 0.842
T45A | 0.787
T23C G55C | 0.469
A24C T29C | 0.28
A24C T29G | 0.766
C40G | 0.816
C33G A56C | 0.837
T32A A57G | 0.859
A27C A36T | 0.817
C28A T45C | 0.499
T25G A57C | 0.556
G31T A57C | 0.789
G47C A56G | 0.0569
G47C A56T | 0.0769

Variant | fraction ligated
A24T A56T | 0.0614
C28A A37G | 0.793
C40G T43G | 0.819
A37C G55A | 0.837
C26T G34T | 0.812
G31A G50T | 0.195
G38C G46C | 0.523
T23C T45A | 0.266
A24C A37C | 0.716
C40A A41C | 0.811
A36C C42G | 0.839
C33A A36T | 0.868
A48T G50T | 0.392
C28G T32C | 0.723
C28G T32A | 0.795
G50T A56G | 0.0624
T44C A48T | 0.781
C33G A48G | 0.793
G55C A56G A57G | 0.0448
T30G G46C | 0.776
C26G A48C | 0.104
G31T C33A | 0.831
C26T G47T | 0.182
A39G A57G | 0.823

Variant | fraction ligated
A41C G46C | 0.639
C42T G55C | 0.797
A48C G50T | 0.309
G34T A56C | 0.805
T35G C42T | 0.838
A36T A39T | 0.836
A48G G50A | 0.118
C42A T44C | 0.834
A39T G46C | 0.64
A39T G46A | 0.805
T35C | 0.839
A36C G50A | 0.619
T35A A39T | 0.838
T23C T29G | 0.766
C33G C40A | 0.819
C28T T30A | 0.814
T35C A48G | 0.805
T35C A48C | 0.766
A27G A56C | 0.767
T23A A27G | 0.794
T23G T45A | 0.795
T23G T45G | 0.523
A41T G46C | 0.792
A24G T44A | 0.817

Variant | fraction ligated
C33G A41C | 0.822
A27C A41G | 0.781
A41T A56C | 0.784
T25A G31A | 0.0494
T32A T35C | 0.829
T45A A57G | 0.752
T23A T45G | 0.0214
G47C G55C | 0.0788
A36T C42T | 0.856
T25C C28A | 0.684
G38C C40T | 0.802
G38T G55C | 0.781
T29A G38T | 0.87
T45C A57C | 0.785
C40A G46C | 0.817
T35G G47C | 0.222
T35C A57C | 0.813
A24C T44A | 0.759
A24C T44G | 0.292
A39T G55T | 0.804
G55A A56G A57T | 0.152
T35C G50T | 0.753
G34C A41G | 0.758
T23A G50T | 0.699

Variant | fraction ligated
C28A T49C | 0.605
C26T T44C | 0.822
A39T A56C | 0.761
C40A T49C | 0.116
C40A T49G | 0.674
C28G A36G | 0.812
A36G T45A | 0.785
G50A A57C | 0.0747
T44A T49A | 0.779
G34C C40T | 0.803
G34C C40G | 0.818
G38T A57G | 0.862
G47T T49G | 0.261
G47T T49C | 0.0788
A37G C42G | 0.857
T45C G55A | 0.521
T45C A48C | 0.112
A27C T30C | 0.774
G31T T45A | 0.387
T25G T35G | 0.804
A27G C33T | 0.828
A41G T43G | 0.807
A41T C42A | 0.849
C28G T29A | 0.803

Variant | fraction ligated
C28G T29C | 0.814
G58A | 0.851
A36C G55T | 0.797
T29C A37C | 0.828
T29A C33G | 0.868
A24C C40T | 0.707
A24C C40A | 0.165
A27T G38T | 0.799
G31T T35C | 0.782
A36C T45A | 0.771
G34T A41T | 0.763
T25C C42G | 0.769
C33T A37T | 0.854
A27T C40G | 0.807
A27T C40A | 0.856
T35G A37C | 0.868
C33T T45G | 0.103
A37G T44G | 0.85
T30C T32G C33G G38C A39C A41G | 0.831
T25C G50A | 0.326
A36G G47A | 0.764
C40A T45G | 0.0271
A27T C42T | 0.822
G38A A39C | 0.817

Variant | fraction ligated
C33G T44A | 0.812
A37C A56G | 0.784
T43C G46A | 0.789
T23C A56C | 0.518
T29G T30A | 0.823
T32G A36T | 0.823
T44C A57C | 0.744
G31C T35G | 0.8
T43A T45C | 0.696
A27G T43A | 0.829
A37G A41T | 0.859
G34A A37G | 0.859
C40G G46A | 0.825
A27T A41C | 0.766
T29G A37C | 0.814
T45G T49A | 0.0341
G31T T49G | 0.19
A27C T29A | 0.818
A37T T49G | 0.791
G34T A36T | 0.827
G47A | 0.788
T29G T35A | 0.83
